Usually Kd stands for the equilibrium constant for the complex coming apart. In general, koff refers to the rate constant with which the complex falls apart. Usually kon stands for the second-order rate constant of association.

Results on 1 molecule are retold here after patent EP4737480A1 (Japan Science and Technology Agency, dated 2026).

The experiment addresses recombinant HER2 molecule (UniProt P04626 23-652). Put plainly: BLI (Octet N1), HER2 on streptavidin biosensor. (BLI is a label-free optical method that tracks binding on a fibre tip over time.)

B1: trastuzumab light chain P95ΔP96Δ (other)
light: DIQMTQSPSSLSASVGDRVTITCRASQDVNTAVAWYQQKPGKAPKLLIYSASFLYSGVPSRFSGSRSGTDFTLTISSLQPEDFATYYCQQHYTTTFGQGTKVEIKRTVAAPSVFIFPPSDEQLKSGTASVVCLLNNFYPREAKVQWKVDNALQSGNSQESVTEQDSKDSTYSLSSTLTLSKADYEKHKVYACEVTHQGLSSPVTKSFNRGEC
notes: also called Tmb-L-PPΔ; Tmb-L-PΔΔ
Take B1: the Kd worked out at 123 nM, the koff was 0.00258 s⁻¹ and the kon is 20900 M⁻¹ s⁻¹.
